Test results reported in US20090044296A1 (CORNELL RESEARCH FOUNDATION, published 2009).

T1: LexA-lamin (UniProt P02545 66-230)
T1 construct: not shown: LexA part of the fusion
T1 sequence: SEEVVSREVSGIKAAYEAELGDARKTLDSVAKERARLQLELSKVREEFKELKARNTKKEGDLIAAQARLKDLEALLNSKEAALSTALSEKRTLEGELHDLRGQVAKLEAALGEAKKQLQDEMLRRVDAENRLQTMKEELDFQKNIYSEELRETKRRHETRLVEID

T2: HrpN-4, truncated derivative of HrpN spanning residues 1-198 (Erwinia amylovora, UniProt Q01099 1-198)
T2 construct: Cloned in pGilda (LexA fusion, bait)
T2 sequence (looked up): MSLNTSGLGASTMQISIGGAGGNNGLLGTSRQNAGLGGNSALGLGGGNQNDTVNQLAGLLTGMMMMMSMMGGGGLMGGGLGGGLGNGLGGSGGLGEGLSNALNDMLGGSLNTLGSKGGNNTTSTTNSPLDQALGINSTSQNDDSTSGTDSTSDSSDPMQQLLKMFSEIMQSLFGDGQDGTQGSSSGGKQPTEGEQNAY

B1: HIPM (HrpN-interacting protein from Malus), original yeast two-hybrid clone with the 53 C-terminal amino acids (other)
chain: GDRWSMRILWACAIGSAVSLYMVAVDRQLKNRERALAEELKAMEAESGSGEIV
notes: Residues 8-60 are worked out from that; also called pB42AD-HIPM; pAD-HIPM
B2: AtHIPM, 52 amino acid fragment orthologous to the original HIPM prey clone (other)
chain: NDKWSMRILWGCAIGSAIGLYMVAVERQTQNRARAMAESLRAAESQGDGDNV
B3: HrpN (harpin) of Erwinia amylovora, full-length, yeast two-hybrid construct (other)
chain: MSLNTSGLGASTMQISIGGAGGNNGLLGTSRQNAGLGGNSALGLGGGNQNDTVNQLAGLLTGMMMMMSMMGGGGLMGGGLGGGLGNGLGGSGGLGEGLSNALNDMLGGSLNTLGSKGGNNTTSTTNSPLDQALGINSTSQNDDSTSGTDSTSDSSDPMQQLLKMFSEIMQSLFGDGQDGTQGSSSGGKQPTEGEQNAYKKGVTDALSGLMGNGLSQLLGNGGLGGGQGGNAGTGLDGSSLGGKGLQNLSGPVDYQQLGNAVGTGIGMKAGIQALNDIGTHSDSSTRSFVNKGDRAMAKEIGQFMDQYPEVFGKPQYQKGPGQEVKTDDKSWAKALSKPDDDGMTPASMEQFNKAKGMIKSAMAGDTGNGNLQARGAGGSSLGIDAMMAGDAINNMALGKLGAA
notes: also called pGilda-hrpN; full-length HrpN protein

Tests used:
[1] = biological target: AtHIPM, endogenous protein in Arabidopsis thaliana ecotype Columbia plants (Arabidopsis thaliana); experiment: cell-based or functional assay
[2] = biological target: the molecule itself; experiment: yeast two-hybrid (LexA system), self-interaction
LexA-lamin = biological target: T1, LexA-lamin; experiment: yeast two-hybrid (LexA system), growth without leucine
[3] = biological target: T2, HrpN-4, truncated derivative of HrpN …; experiment: yeast two-hybrid, HrpN deletions in pGilda against pB42AD-HIPM
[4] = biological target: B3; experiment: yeast two-hybrid (LexA system), HrpN bait, apple cDNA prey clone
[5] = biological target: B3; experiment: yeast two-hybrid (LexA system), growth with or without leucine

With “HrpN as applied to plants (Messenger, Eden Bioscience; 15 ug/ml of HrpN) (from UniProt Q01099 1-403)” the decrease in root growth of the AtHIPM T-DNA mutant line (few AtHIPM transcripts) after treatment with 15 ug/ml of HrpN [1] was 6%, the root growth of the wild-type 10 days after treatment with 15 ug/ml of HrpN [1] was 9% and the top growth of the wild-type plants one week after spraying with 15 ug/ml of HrpN [1] was 10%.

B1: no binding [2]; no binding (LexA-lamin); binds [3]. B1: binds [4].

B2: no binding [2]; binds [5].

B3: binds [2].
